Measured values from patent publication US20190389956A1 (INSTITUTE OF BIOPHYSICS CHINESE ACADEMY OF SCIENCES, published 2019).

T1: human IFNAR1 truncation lacking extracellular SD1, fused with GFP, expressed on HEK293T cells (human, UniProt P17181 28-457)
T1 construct: domain: extracellular and transmembrane domains lacking SD1 (32-126); Made from pEGFP-humanIFNAR1EC by overlap PCR; transiently expressed on HEK293T cells; also called R1-Δ1; RI-Δ1; not shown: C-terminal GFP (with linker) from the pEGFP vector
T1 sequence (looked up): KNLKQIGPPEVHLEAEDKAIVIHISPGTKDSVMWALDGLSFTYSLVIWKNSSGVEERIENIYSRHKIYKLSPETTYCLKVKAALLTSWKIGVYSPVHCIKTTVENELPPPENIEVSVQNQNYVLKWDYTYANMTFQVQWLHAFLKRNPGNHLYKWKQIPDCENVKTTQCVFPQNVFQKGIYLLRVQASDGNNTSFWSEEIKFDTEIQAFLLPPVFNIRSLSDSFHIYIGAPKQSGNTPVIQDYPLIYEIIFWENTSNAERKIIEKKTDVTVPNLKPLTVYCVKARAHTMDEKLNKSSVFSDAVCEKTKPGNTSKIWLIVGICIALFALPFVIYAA

T2: human IFNAR1 extracellular and transmembrane domains fused with GFP, expressed on HEK293T cells … (human, UniProt P17181 28-457)
T2 construct: domain: extracellular domains and transmembrane domains; the intracellular domain is replaced by GFP; also called R1-WT; HEK293T cells stably expressing IFNAR1; not shown: C-terminal GFP (with linker) from the pEGFP vector
T2 sequence (looked up): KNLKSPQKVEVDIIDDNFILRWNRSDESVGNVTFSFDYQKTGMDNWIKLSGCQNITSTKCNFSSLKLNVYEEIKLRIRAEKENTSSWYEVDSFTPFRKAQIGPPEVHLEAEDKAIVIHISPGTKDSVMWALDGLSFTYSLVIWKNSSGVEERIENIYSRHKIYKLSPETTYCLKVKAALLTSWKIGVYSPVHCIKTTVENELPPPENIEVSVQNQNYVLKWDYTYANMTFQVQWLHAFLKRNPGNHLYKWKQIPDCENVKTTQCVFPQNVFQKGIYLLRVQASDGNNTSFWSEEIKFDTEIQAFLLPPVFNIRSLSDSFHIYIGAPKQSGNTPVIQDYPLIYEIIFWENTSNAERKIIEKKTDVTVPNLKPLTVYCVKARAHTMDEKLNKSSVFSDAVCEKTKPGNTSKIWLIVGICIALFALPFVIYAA


Assays:
[1] = target: T1, human IFNAR1 truncation lacking …; test: flow cytometry on transfected HEK293T cells, PE anti-mouse IgG
[2] = target: T2, human IFNAR1 extracellular and …; test: flow cytometry screening on HEK293T cells expressing human IFNAR1 extracellular domain-GFP
Description: Hybridoma secreting IFNAR1 antibody can be screened by analyzing GFP and PE signals of cells by flow cytometry. Monoclonal IgG antibodies of each well were screened by a reporter cell line stably expressing the extracellular domain of IFNAR1. Once extensive hybridoma growth occurs, hybridoma cells are usually screened after 10-14 days. Hybridoma cells secreting IFNAR1 antibody are subcloned by limited dilution method and were screened again. If still positive for human IFNAR1, then the monoclonal antibody is subcloned at least twice by limited dilution. Then the stable subclones are cultured in vitro, and a small amount of antibodies are produced in tissue culture medium for characterization.
The day before screening, 100 μL supernatant was aspirated from 96-well cell culture plate into a 96-well U bottom plate. 100 μL fresh 1×HAT RPMI medium was added to the original well for continued culture. HEK293T cells stably expressing IFNAR1 were harvested and were subsequently added to a 96-well U-bottom plate at a density of 10,000 cells/200 μL/well. After centrifugation at 2200 rpm for 3 min, the supernatant was discarded and the cell pellet was collected and re-suspended with 100 μL hybridoma supernatant at 4° C. for 30 min. […] Finally, the re-suspended cells were analyzed using a flow cytometer Guava (Millipore) for cellular GFP and PE signal. […]

binding result [2]	Binder	binding result [1]
binds	mouse anti-human IFNAR1 monoclonal antibody 10C9 (antibody, V domains shown, Mouse monoclonal IgG from a hybridoma, detected with anti-mouse IgG; also called antibody secreted by hybridoma cell line 10C9 (CGMCC No. 12543)) VH: QIQLVQSGPELKKPGETVKISCKASGYTFTNYGVNWMKQAPGKGLKWMGWINTYTGEPTYADDFKGRFAFSLETSASTAYLQINNLKNEDTATYFCAREGVYYYGDWAWLAYWGQGTLVTVSA VL: DIVMTQSQKFISTSVGDRVSVTCKASQNVGTNVAWYQQKPGQSPKTLIYSTSYRYNGVPDRFTGSGSGTDFTLTISNVQSEDLAEYFCQQYNSYYTFGGGTKLEIK	no binding (tested: 5 µg/ml (methods of Example 2))
binds	mouse anti-human IFNAR1 monoclonal antibody 10C2 (antibody, V domains shown, Mouse monoclonal IgG from a hybridoma, detected with anti-mouse IgG; also called antibody secreted by hybridoma cell line 10C2 (CGMCC No. 12542)) VH: QIQLVQSGPELKKPGETVKISCKASGYTFTNYGMNWVKQAPGKGLKWMGWINTYTGEPTYSDDFKGRFAFSLETSASTANLQINNLKDEDAATYFCAREGAIYYGDYVYFGVWGAGTTVTVSS VL: DIVMTQSQKFMSTSVGDRVSITCKASQNVGTAVAWYQEKPGQSPKLLIYSASNRYTGVPDRFTGSGSGTAFTLTISNMQSEDLADYFCQQYYNYPLTFGAGTKLEVKR	no binding (tested: 5 µg/ml (methods of Example 2))
